Residue numbers refer to the chain shown, from its start. Numbers in names are those of the source.
T1: myocilin C-terminal olfactomedin domain (myoc-OLF), cleaved from MBP, wild type (human, UniProt Q99972 228-504)
T1 sequence (looked up): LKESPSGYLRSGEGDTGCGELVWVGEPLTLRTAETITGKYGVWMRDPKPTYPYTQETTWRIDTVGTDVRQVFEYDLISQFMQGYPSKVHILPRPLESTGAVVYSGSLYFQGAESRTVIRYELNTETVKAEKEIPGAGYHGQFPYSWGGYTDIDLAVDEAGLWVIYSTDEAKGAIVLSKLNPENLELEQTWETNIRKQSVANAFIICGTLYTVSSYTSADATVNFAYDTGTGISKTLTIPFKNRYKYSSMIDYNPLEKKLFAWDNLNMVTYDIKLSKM

B1: MBP-OLF(245-504) (domain or fragment, human, UniProt Q99972 245-504, looked up)
chain: CGELVWVGEPLTLRTAETITGKYGVWMRDPKPTYPYTQETTWRIDTVGTDVRQVFEYDLISQFMQGYPSKVHILPRPLESTGAVVYSGSLYFQGAESRTVIRYELNTETVKAEKEIPGAGYHGQFPYSWGGYTDIDLAVDEAGLWVIYSTDEAKGAIVLSKLNPENLELEQTWETNIRKQSVANAFIICGTLYTVSSYTSADATVNFAYDTGTGISKTLTIPFKNRYKYSSMIDYNPLEKKLFAWDNLNMVTYDIKLSKM
B2: MBP-OLF(245-455) (domain or fragment, human, UniProt Q99972 245-455, looked up)
chain: CGELVWVGEPLTLRTAETITGKYGVWMRDPKPTYPYTQETTWRIDTVGTDVRQVFEYDLISQFMQGYPSKVHILPRPLESTGAVVYSGSLYFQGAESRTVIRYELNTETVKAEKEIPGAGYHGQFPYSWGGYTDIDLAVDEAGLWVIYSTDEAKGAIVLSKLNPENLELEQTWETNIRKQSVANAFIICGTLYTVSSYTSADATVNFAYDT
B3: myoc-OLF(Y437H), cleaved from MBP (domain or fragment, human, UniProt Q99972 228-504, looked up)
chain: T1 sequence (looked up) with Y210H
B4: MBP-OLF(P370L) (domain or fragment, human, UniProt Q99972 228-504, looked up)
chain: T1 sequence (looked up) with P143L
B5: MBP-OLF(Y437H) (domain or fragment, human, UniProt Q99972 228-504, looked up)
chain: T1 sequence (looked up) with Y210H

Assays:
SEC = target: the molecule itself; test: SEC
[1] = target: the molecule itself; test: thioflavin T fluorescence of fibril formation
[2] = target: T1, myocilin C-terminal olfactomedin domain …; test: seeded fibril formation followed by thioflavin T fluorescence

Row | binding result [2] | Binder | binding result (SEC) | binding result [1]
1 | – | B1 | binds | –
2 | – | B2 | binds | –
3 | binds | B3 | – | binds
4 | – | B4 | binds | –
5 | – | B5 | binds | –
